In patent US20240245796A1 (PROFOUNDBIO US, published 2024):

Experiments:
[1] = target: T1, human FOLR1 extracellular domain linked to His tag (human, UniProt P15328 25-233, limits assumed); test: BLI, global 1:1 fit (500 nM row); Table 12 run (species FOLR α panel, Hu-Ag)
T1 construct: extracellular domain; It may be the same product as m13; also called Hu-FRα; Hu-Ag; not shown: His tag

[2] = target: T2, mouse FOLR1 extracellular domain linked to His tag (mouse, UniProt P35846 25-232, limits assumed); test: BLI, global 1:1 fit (500 nM row); only the 500 nM response quantifiable; only the 500 nM response quantifiable; R^2 0.6807
T2 construct: extracellular domain; Antigen in solution in BLI; also called Mouse-Ag; not shown: His tag
T2 sequence (P35846 25-232 limits assumed): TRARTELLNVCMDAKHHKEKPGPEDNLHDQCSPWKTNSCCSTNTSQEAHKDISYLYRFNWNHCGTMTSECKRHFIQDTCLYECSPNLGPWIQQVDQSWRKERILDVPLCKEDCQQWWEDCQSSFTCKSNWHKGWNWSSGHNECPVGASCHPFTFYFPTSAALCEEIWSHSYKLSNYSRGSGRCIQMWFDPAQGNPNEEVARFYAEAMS

[3] = target: T3, human FOLR1 protein, His Tag (ACRO FO1-H52H1) (human, UniProt P15328 25-233); test: ELISA, coated hFOLR1-His, supernatant 5x
T3 construct: Bought protein coated on ELISA plates; not shown: His tag
T3 sequence (P15328 25-233 limits assumed): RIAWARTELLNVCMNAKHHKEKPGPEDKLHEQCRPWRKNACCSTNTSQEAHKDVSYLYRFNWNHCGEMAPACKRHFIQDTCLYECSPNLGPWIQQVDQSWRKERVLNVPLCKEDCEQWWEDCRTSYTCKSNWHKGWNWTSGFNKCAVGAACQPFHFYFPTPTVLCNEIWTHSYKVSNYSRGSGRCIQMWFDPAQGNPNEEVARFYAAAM

[4] = target: T1, human FOLR1 extracellular domain linked …; test: BLI, global 1:1 fit (500 nM row); Table 11 run (FOLR family panel, Hu-FRα)
[5] = target: T4, cynomolgus FOLR1 protein, His Tag (ACRO F01-C52H8) (cynomolgus, UniProt A0A2K5U044 25-233); test: ELISA, coated cyno FOLR1-His, supernatant 5x
T4 construct: Bought protein coated on ELISA plates; also called Cynomolgus/Rhesus macaque FOLR1, Protein, His Tag; not shown: His tag
T4 sequence (A0A2K5U044 entry or part of it): as the sequence (P15328 25-233 limits assumed) above, with I2T, W4R, R37K, A146P, H171Y counted along it

[6] = target: T2, mouse FOLR1 extracellular domain linked …; test: BLI, global 1:1 fit (62.5 nM row); only the 500 nM response quantifiable
[7] = target: T3, human FOLR1 protein, His Tag (ACRO …); test: ELISA, coated hFOLR1-His, supernatant 25x
[8] = target: T2, mouse FOLR1 extracellular domain linked …; test: BLI, global 1:1 fit (15.6 nM row); only the 500 nM response quantifiable
[9] = target: T1, human FOLR1 extracellular domain linked …; test: BLI, global 1:1 fit (62.5 nM row)
[10] = target: T2, mouse FOLR1 extracellular domain linked …; test: BLI, global 1:1 fit (7.82 nM row); only the 500 nM response quantifiable
[11] = target: T4, cynomolgus FOLR1 protein, His Tag (ACRO …); test: ELISA, coated cyno FOLR1-His, supernatant 25x
[12] = target: T4, cynomolgus FOLR1 protein, His Tag (ACRO …); test: ELISA, coated cyno FOLR1-His, supernatant 1x
[13] = target: T5, rat FOLR1 extracellular domain linked to His tag (rat); test: BLI, Ag 125 nM; * = below range of quantification
T5 construct: extracellular domain; Antigen in solution in BLI; also called Rat-Ag

[14] = target: T6, human FOLR2 extracellular domain linked to His tag (human, UniProt P14207 17-230, limits assumed); test: BLI, Ag 62.5 nM over Ab on anti-hIgG Fc tip
T6 construct: extracellular domain; Antigen in solution in BLI; also called Hu-FRb; not shown: His tag
T6 sequence (P14207 17-230 limits assumed): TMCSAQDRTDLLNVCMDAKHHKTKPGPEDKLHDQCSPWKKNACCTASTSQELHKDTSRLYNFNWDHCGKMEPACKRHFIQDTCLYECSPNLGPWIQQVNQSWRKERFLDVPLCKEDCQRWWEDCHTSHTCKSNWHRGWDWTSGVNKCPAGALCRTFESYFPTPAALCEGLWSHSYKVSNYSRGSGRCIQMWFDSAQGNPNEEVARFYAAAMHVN

[15] = target: T1, human FOLR1 extracellular domain linked …; test: BLI, Ag 62.5 nM over Ab on anti-hIgG Fc tip
[16] = target: T3, human FOLR1 protein, His Tag (ACRO …); test: ELISA, coated hFOLR1-His, supernatant 1x
[17] = target: T3, human FOLR1 protein, His Tag (ACRO …); test: ELISA, coated hFOLR1-His, HEK293 supernatant
[18] = target: T5, rat FOLR1 extracellular domain linked …; test: BLI, global 1:1 fit (250 nM row); all responses below quantification
[19] = target: T3, human FOLR1 protein, His Tag (ACRO …); test: ratio of OD450 on hFOLR1 to OD450 on anti-human IgG Fc
[20] = target: T6, human FOLR2 extracellular domain linked …; test: BLI, Ag 250 nM over Ab on anti-hIgG Fc tip
[21] = target: T1, human FOLR1 extracellular domain linked …; test: BLI, Ag 250 nM over Ab on anti-hIgG Fc tip
[22] = target: T5, rat FOLR1 extracellular domain linked …; test: BLI, Ag 62.5 nM; * = below range of quantification

T1 sequence (P15328 25-233 limits assumed): as the sequence (P15328 25-233 limits assumed) above

B1: F131 (antibody, V domains shown)
VH: EVQLLESGGGVVQPGRSLRLSCAASGFTFSSYGMHWVRQAPGKGLEWVAVISYDGSNKYYADSVKGRFTISRANSKNTLYLQMNSLRAEDTAVYYCARPRAYYGAYGSSFDYWGQGTQVTVSS
VL: EIVMTQSPSSVSASVGDRVAITCRASQGISSWLAWYQQKPGKAPKLLIYAASSLQSGVPSRFSGSGSGTDFTLTISSLQPEDFATYYCQQSYSTPLTFGGGTKVDIK
notes: also called clone F131; F131 mAb
Kd [1]: 1.53 nM | Kd [2]: 2960 nM | OD450 [3]: 1.52 OD450 | Kd [4]: 5.3 nM | OD450 [5]: 1.27 OD450 | Kd [6]: 2960 nM | koff [6]: 0.301 s⁻¹ | kon [6]: 102000 M⁻¹ s⁻¹ | OD450 [7]: 1.38 OD450 | Kd [8]: 2960 nM | koff [8]: 0.301 s⁻¹ | kon [8]: 102000 M⁻¹ s⁻¹ | Kd [9]: 5.3 nM | koff [9]: 0.0012 s⁻¹ | kon [9]: 226000 M⁻¹ s⁻¹ | Kd [10]: 2960 nM | koff [10]: 0.301 s⁻¹ | kon [10]: 102000 M⁻¹ s⁻¹ | OD450 [11]: 1.09 OD450 | OD450 [12]: 1.2 OD450 | Response [13]: -0.00477 | Response [14]: 0.0356 | Response [15]: 0.117 | OD450 [16]: 1.61 OD450 | OD450 [17]: 2.35 OD450 | koff [18]: 1.03 s⁻¹ | kon [18]: 5490 M⁻¹ s⁻¹ | Target binding/IgG level [19]: 1.02 | Response [20]: 0.0207 | Response [21]: 0.178 | Response [22]: -0.00606

B2: F131-LD038 (antibody, V domains shown)
VH: EVQLLESGGGVVQPGRSLRLSCAASGFTFSSYGMHWVRQAPGKGLEWVAVISYDGSNKYYADSVKGRFTISRANSKNTLYLQMNSLRAEDTAVYYCARPRAYYGAYGSSFDYWGQGTQVTVSS
VL: EIVMTQSPSSVSASVGDRVAITCRASQGISSWLAWYQQKPGKAPKLLIYAASSLQSGVPSRFSGSGSGTDFTLTISSLQPEDFATYYCQQSYSTPLTFGGGTKVDIK
modifications: drug-linker LD038 (PB038, maleimide-PEG unit-Val-Cit-PAB-exatecan) on cysteines freed by TCEP reduction; positions not given
notes: Antibody-drug conjugate of F131 (IgG1) with LD038; also called anti-huFOLR-1 conjugate F131-LD038; F131-038
Kd [6]: 2870 nM | koff [6]: 0.266 s⁻¹ | kon [6]: 92600 M⁻¹ s⁻¹ | Kd [8]: 2870 nM | koff [8]: 0.266 s⁻¹ | kon [8]: 92600 M⁻¹ s⁻¹ | Kd [9]: 4.79 nM | koff [9]: 0.00121 s⁻¹ | kon [9]: 252000 M⁻¹ s⁻¹ | Kd [10]: 2870 nM | koff [10]: 0.266 s⁻¹ | kon [10]: 92600 M⁻¹ s⁻¹ | Response [13]: 0.0007 | Response [14]: 0.0379 | Response [15]: 0.138 | koff [18]: 0.224 s⁻¹ | Response [20]: 0.0243 | Response [21]: 0.201 | Response [22]: -0.00393
